Experimental data taken from PMC9882608, “Structure of an endogenous mycobacterial MCE lipid transporter” (Research Square, 2023).

Target: the molecule itself
Assay: cryo-EM structure

B1: MceG-GFP (MceG, MSMEG_1366, chromosomally tagged with GFP at its C-terminus) (enzyme, UniProt A0QS64 1-360, looked up)
chain: MGVQIDVTGLSKSFGSSKIWEDVTMSIPAGEVSVLLGPSGTGKSVFLKSLIGLLRPERGSIVIDGTDILQCSAKELYEIRTLFGVLFQDGALFGSMNIYDNTAFPLREHTKKSESEIRKIVMEKLDLVGMPNDGHKFPGEISGGMRKRAGLARALVLDPEIILCDEPDSGLDPVRTAYLSQLLIDINAQIDATVLIVTHNINIARTVPDNMGMLFRKQLVMFGPREVLLTSEEPVVKQFLNGRRIGPIGMSEEKDEATAAAEQALVDAGQHDGGVEEIEGVPPQLQATPGMPERKAVARRKARVREILHTLPPAAQAAILEELDRDQPQLSAPTTQTAATAPVENYDDSPTGVIEVPKQA
notes: MceG, ATPase of the MCE ABC transporters, Mycobacterium smegmatis, locus MSMEG_1366; endogenous protein; printed residue numbers run to 360 (residues 1, 256-280 and 326-360 not modelled); also called GFP-tagged MceG; MceG ATPase; not shown: eGFP, C-terminal, kept
Which “stoichiometry N” value does the source give for B1 here?
Its value is 2.
